In the DeepSol protein solubility set:

assay: soluble on expression in E. coli; label from the status in PepcDB or PDB records

Sequence | soluble on expression in E. coli
SLSEVEIEEVRLNPDEPQYTMDGLDGRRFDEQGYLKEHLSSKGAKQFPESSDIHFDSPHLVFFQEGRLLYEVGSDEAVYHTENKQVLFKNNVVLTKTADGKRQAGKVEAEKLHVDTESQYAQTDTPVSFQYGASHGQAGGMTYDHKTGMLNFSSKVKATIYDTKDM | not soluble
MSSIGKEDIYESDGAASQVQKSEPENDNPTHPDIELISVDVDEALKKYKNRVLNLTSSDFSDSIAKKRRHAFGNNQYVLEVTGAGFSGTETAAEKLNRILYEVADLNEQIRADENLKTDLLNAEVLENLEKEVKTLQVAQSNGKTARVEHDVELPNVRTDSKVATLENRLRRIEQVIGSSVIPSAPVLDTIEDLKLRCETLNHSYVSGLEQRLNMMLTKLEKIDETRANNDIDENLDKKVDEILELMQKWDVACSSLPSNVNKVKALNRLHEQVQHFAGGLSHLKTIREKLEKEVAQGREAIIEYESQGKQEIGSVVEKLKLLEAKVADLK | not soluble
MADVALRITETVARLQKELKCGICCSTYKDPILSTCFHIFCRSCINACFERKRKVQCPICRSVLDKRSCRDTYQITMAVQNYLKLSEAFKKDIENMNTFKSLPPEKMFMESQMPLDITIIPENDGKRCAPDFAIPFLPVRRKRPSRPQPPSAFAEEPAEPVEPPEPATKQPVELQSRVFPLEKLKKDVETSTETYKISREELKNVDIEEYINTLRENSTEIDEIDALFQLMPTMRQFLRNNINQLMEKFHVAPPKKSEKPANRRVSFASSQDLENIKIMTASESLETPPEPIQKLAQKPEVFKSTQNLIDLNLNTAVKKPVVVASDDDEVVEDSEGELQIDEDDLANVTCATSVRNIGKSLCAEYIREGRSISQKSTAYLYAIARKCVIVGRQWLVDCITTGLLLSEADYTITSCSSTIPVKIPPSIGSEMGWLRSRNDEHGKLFAGRRFMILRKFTMNPYFDYKQLIELVQQCGGEILSCYENLSPEKLYIIFSKHSKAIEESKNIENLYKCDVVTMEWVLDSISEYLILPTQPYKAVDSIGCLQD | not soluble
MGLHYFLDHKKEDLYKSVQDVYKSDDRPWVVGFSGGKDSTVVVQIIFYALASMSKNELTKPVYIISSDTMVENPKILEHIDTQLLKMKKAANELELPIHVEKVMPNIKNTFWVNLIGRGYPAPRQKFRWCTDRLKIDPANNFILNKVSEFGETVVVLGVRKSESSTRAQVMNTHKVEGKILRRHTKLPNSYVYAPIEDFSLDDVWTYLMQVPNPWGADNADLLALYQDSQGECPLVIDNSTPSCGNSRFGCWVCTVVQEDKSLKGFIESGDEWLTPLLKFRNWLLENRDKEDYREKKRANGSVYLIGDEDNKRLGLGPYTLEHRKEILRKLLETEKQLQHPHQPKYELITIEELKEIRKIWFEKGDWEDSVLAIYEEVYGHRPNWDIEESKFLESEDIKLLKKLCHEEEVEFELVQKLVNLEFQHYGYKHRYGILKDINRILNEEWLHFDQLQQGDNYAD | not soluble
MSLDHIIIRHAHAAVITAPLNTPFRIATGQHDQLENVFFQLKAHDGTCGYGEAAVASHITGETVEQTLANLQKAATQLAGRNGNDPVELIEEFRPLFVGNHAALAAFEMALFDLASRSRGIPFGALFSAAPGCAARPRFQSDITIVIGSLEEAETAARHYAGQGFTAFKIKVGKDHELDLQRVLAVKRIAPDSCLVLDANMGFDATGMRRFLQQLEQHGIRPDLLEQPVPKGDWDGLAAITREFAGSGMLICADESVGSLAAAELAVALKAVNAINIKFMKSGITESVRIAELACRNNIKLMLGAMMESSLAITAAAHFAATLGCFEVIDLDTTFFINGPLSRSPYLDQSGRFDLGAPGPGIGVALKLLEGHHHHHH | soluble
MTEFESTEDQKPTMLASLDHLSLRNWASPFEEASTPPTASDDSFQSSSEDNLSLRNWAPLSPNPETVKSAKSLRNYSTNPLIPSYICDLCESPKTSELRVAYDAATFQTTYSYSIIWDVEMNDVEHYRKVMETVSKSSANSSRSSFGYFFEARPGMCRLLRTLHNYATDTSQASLADYMIELSGRAPSPVVVKCGHYLCTACFDIVKNADGTYGCSSQQCYWKGSSRQESKKNYENDICRKQRAKALGMKDLGIDVKPASSASSNPIKETSDSSSETNCSLSSGPVSFNHTMLNSLTPVAEHSVAIMMVLVEPLEVYGIVHSYVEMSFPLDTNLAKALGVMLHRKKKILGDYVANGKLYFGFVNDDEKIGMRRIKSNYYDSLMVAEIPKFDDRVVLIFDVGDYVARGFKIYLK | not soluble
MFTGIVQGTAPIHSIKEKANFRTQVVKLLPEMRKDLEIGASIANNGVCLTVTEINGDLVSFDLMQETLKITNLGTVKVGDYVNIERAMQMGTEIGGHLLSGHIYCTAKISDIIASENNRQIWFELPSADVMKYILTKGFVAVDGISLTIGEVRDTQFCVNLIPETLQRTLMGRRKVGDIVNIEIDPQTQAIVDTVENYLQSKNFLEHHHHHH | soluble
MSSLTLTDKVSKMIHQDILSGKLKPGQKLVVAELKERYNVGASPIREALVQLSWNKYVKLEPQKGCWVASISLSELKELFESLRTIGQVLLAKAITNGNENWELNVLTSFHKLNKINLQDAKIEELREWENRYTDFHNSLLEGAQSPIMYQFYQDISHQITRYRHLNNNPQVISETYAQYLEEHEIMMKLTLSRDSEQAIKYLNNHYSKASDLISTYFSA | not soluble
GNIAKPIRILGNGMDRVANGELETRISQQVDDRDDELSHLAIQFDKMVEKLEKLVAKERHLLHHVSHEMRSPLARMQAIVGLIQAQPQKQEQYLKRLEGELTRMDTLAGELLTLSRLETSNMALEKESLKLLPFLGNLVEDNQSIAQKNGQTVTLSADGKIPENTTILANESYLY | not soluble
MDYEIENNHADSIRRGSIEVICGSMFSGKTEELLRRLRRAKIARQTVEIFKPTIDIRYDETDVVSHDKNAIASTPVDNSANILLLSSQVDVVGIDEAQFFDEGLVEVAQQLADQGVRVVIAGLDMDFRRQPFGPMPGLCAIADSVTKVHAVCVECGRLASYSFRRVQGDQQVMLGELNEYSPLCRTCYRKCSSPPQTEEIHSTI | not soluble
MSLNSIKDVDLSEITAGKKYWNVERPVEEEVMYFLLIDRFHDGKERISIPSTTGFGNTDQLQARCGGTIQGVIKNLKYISALGFTSIWINPFLQNNPETYHGYSIENFLEVDAQWGTKEDIVELVAQAHKLHIKVFFDIVLNHTGNNWSYVKENPRYNKGKQYAVKAWRYPDRPIPAELRNLNLYGRKGGIVKWEETPETWDGDIFELKDLIQDDSEIGHATLEILIAVYSYWFAVTDCDGFRIDAAKHIPPKWLNTFVDAMKALTASVHKTSFFIFAEIISNQSYISKYHTIDGYLDFDFHFSFVPNMYGEKKRKSAIQSQPRPVDKVPIRFLDNHDQVGQMPKHRIAYRMKEKALCNLLRAFLCMPGIPCIYYGTEQGLKGKGILDGSIRECLFNPDGKEDILNLDSPYARVIKEGIHLRKKLNLYTGDFQSCEIMAAKSHRCIALQVNGLASSKLIVYNLGPHNEVVSIKLSSPLTRTNKLVVYLYSNGDADNDDKTVVNDILHNITMHPYGFKVLELLNHQESVNEGHHHHHH | soluble
MSKKPTSAYVHIPFCTQICYYCDFSKVFIQNQPVDAYLKALIQEFDSYGIRDLKTLYIGGGTPTAITAKQLEYLLNHLERNLNLDDLEEFTIEANPGDLTPEKIAVLQRSAVNRISLGVQTFNNKQLKQIGRSHNEEQIYSTIANLKTAGFHNISIDLIYALPGQTLDQVKENVAKALALDIPHLSLYSLILEHHTVFMNKMRRGKLNLPTEDLEAEMFEYIISEMEANGFEH | not soluble
MPAPQVMPAKVAPLPTSFRGTSVDGSFSVDASGNLLITRDIRNLFDYFLSAVGEEPLQQSLDRLRAYIAAELQEPARGQALALMQQYIDYKKELVLLERDLPRLADLDALRQREAAVKALRARIFSNEAHVAFFADEETYNQFTLERLAIRQDGKLSAEEKAAAIDRLRASLPEDQQESVLPQLQSELQQQTAALQAAGAGPEAIRQMRQQLVGAEATTRLEQLDRQRSAWKGRLDDYFAEKSRIEGNTGLSEADRRAAVERLAEERFSEQERLRLGALEQMRQAEQR | not soluble
METTSVFRADFLSELDAPAQAGTESAVSGVEGLPPGSALLVVKRGPNAGSRFLLDQAITSAGRHPDSDIFLDDVTVSRRHAEFRLENNEFNVVDVGSLNGTYVNREPVDSAVLANGDEVQIGKFRLVFLTGPKQGEDLEHHHHHH | not soluble
DGMTKLTFGGHPFLLGFEQLERLVERTAKTASEGYPPFNIEAVAENAYRITLAVAGFREDDIAITVEDRQLVVRGRQAEDPAERVFLHRGIASRAFQRSFVLADGVEVAGATMEHGLLHIDLHRQVPQAVVQTIPIGRNR | not soluble
MFEIATTPMATTVVISGDLDLASRDQFLEVAARLTSLRRSLLTIDMCDVRFMDSTGAAFLISLAETGQRRGWLTVLRGSSDAHRFVLDICGATHLFRFDTEHYCHHTASPA | not soluble
MIRSTVLILASFALAVNCYECMNNTVVINAPSDISKPVFYPDGWDGQSSTPQISENQQCVMTINVPTGYYATVTFYKHFTEPGGYLYFPSRKIELLQNDDYNPYIFPSPMVKINIGTDNRNDVMNQFGFKVVYSKYPTLEKNIINIDLGSPPVAAKPSEKLTTFVGDRNSMMSLMGFTMADNSKNYLLRQTAIFGGDSTDSTYIGSLSQILNSQQILTTYGNKISVYTFGLDKLIDYPLFMGQNQVDTMGLLKYNGANCPSTGNCNVTLNGNWGAHVVVVTSYDGPETIKSFDSFPDTGVLNVYENNVSNTTCIATLNKFNYLQQLPLQVNGNMKFYELRAGGVYNMVVTRDTSRASRHQI | not soluble
MLLQELHIYSEQSSSNTKVSIKNKDGEILFEYCYSNDAIPTFNPIELLRLSLEGDIGVLFQMKTSISQKSKKDDFRISCEQSRSETSRMNQ | not soluble
MGSDKIHHHHHHMPSIENMIAWMQARKGKVTYSMTSRMGPNSYDCSSSIFFAMIAGGFLSAGSMGNTETLFGMSGTKLKEISRGEVQRGDVFISGTPGGSAGSDGHTGIFLSNGSFIHCSYTHNGIAVDTNDAYMSTRLPHHFYRIVGSGSGNTDNKPQMVTLNVDGQFGNATAKRLQEYFDTAGKDGVISHQYKQTFNQNIYAAQFDSSLTGSNVVKALQRFLGIGQDGLFGQGTIKALQKHLGTTQDGTISPVSDSVRELQRRLNANKL | not soluble
MKFAVIGNPISHSLSPLMHHANFQSLNLENTYEAINVPVNQFQDIKKIISEKSIDGFNVTIPHKERIIPYLDDINEQAKSVGAVNTVLVKDGKWIGYNTDGIGYVNGLKQIYEGIEDAYILILGAGGASKGIANELYKIVRPTLTVANRTMSRFNNWSLNINKINLSHAESHLDEFDIIINTTPAGMNGNTDSVISLNRLASHTLVSDIVYNPYKTPILIEAEQRGNPIYNGLDMFVHQGAESFKIWTNLEPDIKAMKNIVIQKLKGELLEHHHHHH | soluble
EDPSLDRPFISEGTTLKDLIYDMTTSGSGSGLPLLVQRTIARTIVLQESIGKGRFGEVWRGKWRGEEVAVKIFSSREERSWFREAEIYQTVMLRHENILGFIAADNKDNGTWTQLWLVSDYHEHGSLFDYLNRYTVTVEGMIKLALSTASGLAHLHMEIVGTQGKPAIAHRDLKSKNILVKKNGTCCIADLGLAVRHDSATDTIDIAPNHRVGTKRYMAPEVLDDSINMKHFESFKRADIYAMGLVFWEIARRCSIGGIHEDYQLPYYDLVPSDPSVEEMRKVVCEQKLRPNIPNRWQSCEALRVMAKIMRECWYANGAARLTALRIKKTLSQLSQQEGIKM | soluble
MGSDKIHHHHHHMNILNIYNEFDINNFDLSVDHYGSEKCDRGYSFGPTIRDNYVIHFILEGKGKLTINQHTLDLAAGDIFLLPKDISTFYQADLQMPWSYIWIGFSGSKAENILKQSSLFKRFYCHSGRSSKLFSQMMTIIQFANTPLTSVNELLMVGELYKLLAALIEEFPLSHLEESNSSTKAYVNQVKKIIHSQYGSSLRVNDIAKKLNLSRSYLYKIFRKSTNLSIKEYILQVRMKRSQYLLENPKLSIAEISNSVGFSDSLAFSKAFKNYFGKSPSKFRKEIQNN | not soluble
